Data: PMC9482650, “Quantitative fragmentomics allow affinity mapping of interactomes” (Nature Communications, 2022)

Columns and labels:
Experiment in all cases: holdup assay
Design in all cases: key: below the threshold = too weak to quantify, mostly under pKd 3.1 to 4
LIN7B, Q9HAP6 = biological target: T1, LIN7B, Q9HAP6
T1 sequence (Q9HAP6 88-185, limits assumed, looked up): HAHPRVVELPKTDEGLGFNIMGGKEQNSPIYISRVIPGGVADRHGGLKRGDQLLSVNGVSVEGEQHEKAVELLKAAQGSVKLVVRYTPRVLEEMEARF

GRID2IP_2, A4D2P6 = biological target: GRID2IP_2, A4D2P6
Chain of GRID2IP_2, A4D2P6 (A4D2P6 272-370): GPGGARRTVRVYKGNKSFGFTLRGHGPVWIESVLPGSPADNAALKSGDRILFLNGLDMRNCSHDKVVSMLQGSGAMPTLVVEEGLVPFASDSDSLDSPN

GRIP2_7, Q9C0E4 = biological target: GRIP2_7, Q9C0E4
Chain of GRIP2_7, Q9C0E4 (Q9C0E4 934-1023): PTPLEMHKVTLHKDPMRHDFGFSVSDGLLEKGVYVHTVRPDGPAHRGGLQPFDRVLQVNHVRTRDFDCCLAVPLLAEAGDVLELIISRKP

CARD11, Q9BXL7 = biological target: T2, CARD11, Q9BXL7
T2 sequence (Q9BXL7 662-765, limits assumed, looked up): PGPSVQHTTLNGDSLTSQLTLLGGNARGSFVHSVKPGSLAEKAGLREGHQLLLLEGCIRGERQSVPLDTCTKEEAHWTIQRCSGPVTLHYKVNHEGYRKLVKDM

Inadl_5, Q8NI35 = biological target: Inadl_5, Q8NI35
Chain of Inadl_5, Q8NI35 (Q8NI35 673-780): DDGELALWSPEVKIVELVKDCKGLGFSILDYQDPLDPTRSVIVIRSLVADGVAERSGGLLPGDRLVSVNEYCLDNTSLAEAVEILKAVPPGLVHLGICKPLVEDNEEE

SNX27, Q96L92 = biological target: SNX27, Q96L92
LDB3, O75112 = biological target: LDB3, O75112
Chain of LDB3, O75112 (O75112 1-94): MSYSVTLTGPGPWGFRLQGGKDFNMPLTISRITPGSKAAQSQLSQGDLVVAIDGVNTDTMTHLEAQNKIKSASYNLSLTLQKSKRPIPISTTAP

GOPC, Q9HD26 = settings: plain residues with an end cap or a label only (N-terminal biotin on a linker: ado-ado)
PCLO, Q9Y6V0 = biological target: T3, PCLO, Q9Y6V0
T3 sequence (Q9Y6V0 4491-4600, limits assumed, looked up): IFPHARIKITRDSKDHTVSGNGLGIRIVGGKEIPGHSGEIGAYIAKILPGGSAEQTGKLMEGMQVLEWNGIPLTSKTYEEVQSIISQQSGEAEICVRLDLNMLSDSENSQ

SCRIB_3, Q14160 = biological target: SCRIB_3, Q14160
Chain of SCRIB_3, Q14160 (Q14160 999-1103): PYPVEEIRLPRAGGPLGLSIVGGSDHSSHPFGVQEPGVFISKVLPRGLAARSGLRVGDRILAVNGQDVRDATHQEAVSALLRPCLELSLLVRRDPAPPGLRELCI

NHERF4_1, Q86UT5-2 = biological target: NHERF4_1, Q86UT5-2
Chain of NHERF4_1, Q86UT5-2 (Q86UT5 other isoform, or with tags, fused parts or gaps): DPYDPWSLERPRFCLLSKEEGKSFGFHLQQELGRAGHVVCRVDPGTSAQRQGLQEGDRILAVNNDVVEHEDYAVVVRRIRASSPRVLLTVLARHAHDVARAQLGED

HTRA3, P83110 = biological target: T4, HTRA3, P83110
T4 sequence (P83110 354-453, limits assumed, looked up): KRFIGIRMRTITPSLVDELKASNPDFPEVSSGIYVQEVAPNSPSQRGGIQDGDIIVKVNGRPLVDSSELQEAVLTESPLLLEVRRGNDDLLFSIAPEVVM

GRIP2_5, Q9C0E4 = biological target: GRIP2_5, Q9C0E4
Chain of GRIP2_5, Q9C0E4 (Q9C0E4 544-642): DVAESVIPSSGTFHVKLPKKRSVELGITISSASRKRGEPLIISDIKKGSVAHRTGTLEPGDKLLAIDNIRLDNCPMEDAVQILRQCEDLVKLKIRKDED

PICK1, Q9NRD5 = biological target: PICK1, Q9NRD5
Chain of PICK1, Q9NRD5 (Q9NRD5 17-115): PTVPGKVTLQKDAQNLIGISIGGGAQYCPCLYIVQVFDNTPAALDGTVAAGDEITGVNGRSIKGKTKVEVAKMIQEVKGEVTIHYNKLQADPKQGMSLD

LRRC7, Q96NW7 = biological target: T5, LRRC7, Q96NW7
T5 sequence (Q96NW7 1440-1537, limits assumed, looked up): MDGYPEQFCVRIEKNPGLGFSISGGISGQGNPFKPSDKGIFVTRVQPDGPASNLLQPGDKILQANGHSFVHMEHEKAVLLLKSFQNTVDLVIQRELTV

LAP2, Q96RT1 = biological target: LAP2, Q96RT1
Chain of LAP2, Q96RT1 (Q96RT1 other isoform, or with tags, fused parts or gaps): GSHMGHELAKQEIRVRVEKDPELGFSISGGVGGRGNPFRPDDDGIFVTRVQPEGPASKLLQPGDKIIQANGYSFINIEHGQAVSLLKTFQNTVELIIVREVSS

DLG5_1, Q8TDM6 = biological target: DLG5_1, Q8TDM6
Chain of DLG5_1, Q8TDM6 (Q8TDM6 617-713): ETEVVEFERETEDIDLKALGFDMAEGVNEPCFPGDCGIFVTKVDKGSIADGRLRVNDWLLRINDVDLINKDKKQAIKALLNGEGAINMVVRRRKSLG

NHERF3_3, Q5T2W1 = biological target: T6, NHERF3_3, Q5T2W1
T6 sequence (Q5T2W1 238-333, limits assumed, looked up): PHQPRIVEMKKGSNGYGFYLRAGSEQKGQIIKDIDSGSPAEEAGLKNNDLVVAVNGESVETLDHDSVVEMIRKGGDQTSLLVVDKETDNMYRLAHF

Inadl_10, Q8NI35 = biological target: Inadl_10, Q8NI35
Chain of Inadl_10, Q8NI35 (Q8NI35 1673-1763): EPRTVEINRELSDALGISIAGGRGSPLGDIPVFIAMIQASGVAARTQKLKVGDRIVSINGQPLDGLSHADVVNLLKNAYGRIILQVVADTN

TJP2_1, Q9UDY2 = biological target: TJP2_1, Q9UDY2
Chain of TJP2_1, Q9UDY2 (Q9UDY2 24-128): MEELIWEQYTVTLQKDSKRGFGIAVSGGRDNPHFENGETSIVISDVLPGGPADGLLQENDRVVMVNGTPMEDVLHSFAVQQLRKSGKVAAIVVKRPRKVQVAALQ

SNTG1, Q9NSN8 = biological target: T7, SNTG1, Q9NSN8
T7 sequence (Q9NSN8 52-150, limits assumed, looked up): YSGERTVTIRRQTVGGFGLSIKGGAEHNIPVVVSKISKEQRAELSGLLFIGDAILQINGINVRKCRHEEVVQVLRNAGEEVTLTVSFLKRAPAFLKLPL

DLG4_3, P78352 = biological target: DLG4_3, P78352
Chain of DLG4_3, P78352 (P78352 306-403): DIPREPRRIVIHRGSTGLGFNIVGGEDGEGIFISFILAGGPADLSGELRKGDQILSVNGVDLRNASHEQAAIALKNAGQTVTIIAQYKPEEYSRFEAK

NHERF3_1, Q5T2W1 = biological target: T8, NHERF3_1, Q5T2W1
T8 sequence (Q5T2W1 4-100, limits assumed, looked up): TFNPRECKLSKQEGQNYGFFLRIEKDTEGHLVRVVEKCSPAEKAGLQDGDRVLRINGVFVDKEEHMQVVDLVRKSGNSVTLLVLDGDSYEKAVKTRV

NHERF4_2, Q86UT5 = biological target: NHERF4_2, Q86UT5
Chain of NHERF4_2, Q86UT5 (Q86UT5 220-308): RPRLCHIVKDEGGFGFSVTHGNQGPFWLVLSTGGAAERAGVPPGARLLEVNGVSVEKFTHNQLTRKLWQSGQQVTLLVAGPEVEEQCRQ

MAGI2_4, Q86UL8 = biological target: MAGI2_4, Q86UL8
Chain of MAGI2_4, Q86UL8 (Q86UL8 772-865): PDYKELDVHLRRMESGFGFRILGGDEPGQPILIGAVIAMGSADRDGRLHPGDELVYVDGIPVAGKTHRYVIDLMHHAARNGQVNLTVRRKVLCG

IL16_3, Q14005 = biological target: IL16_3, Q14005
Chain of IL16_3, Q14005 (Q14005 1107-1207): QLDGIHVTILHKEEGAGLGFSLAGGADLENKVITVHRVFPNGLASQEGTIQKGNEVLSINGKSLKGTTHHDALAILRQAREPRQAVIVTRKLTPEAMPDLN

LNX2_2, Q8N448 = biological target: T9, LNX2_2, Q8N448
T9 sequence (Q8N448 334-432, limits assumed, looked up): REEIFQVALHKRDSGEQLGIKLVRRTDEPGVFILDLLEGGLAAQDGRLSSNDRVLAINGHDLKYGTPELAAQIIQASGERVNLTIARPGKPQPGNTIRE

SCRIB_2, Q14160 = biological target: SCRIB_2, Q14160
Chain of SCRIB_2, Q14160 (Q14160 857-960): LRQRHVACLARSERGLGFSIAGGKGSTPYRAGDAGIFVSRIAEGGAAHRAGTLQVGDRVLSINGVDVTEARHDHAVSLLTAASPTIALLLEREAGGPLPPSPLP

[1] = plain residues with an end cap or a label only (N-terminal biotin on a linker: ado-ado)
[2] = modified: phospho on T at position -2 from the C-terminal residue

## IDESKKEWLI [CNTNAP2, Q9UHC6]
LIN7B, Q9HAP6; [1]
  pKd: 3.75
GRID2IP_2, A4D2P6; [1]
  pKd: below the threshold
GRIP2_7, Q9C0E4; [1]
  pKd: 4.45
CARD11, Q9BXL7; [1]
  pKd: below the threshold
Inadl_5, Q8NI35; [1]
  pKd: below the threshold
SNX27, Q96L92; [1]
  pKd: below the threshold
LDB3, O75112; [1]
  pKd: below the threshold
GOPC, Q9HD26
  pKd: below the threshold
PCLO, Q9Y6V0; [1]
  pKd: below the threshold
SCRIB_3, Q14160; [1]
  pKd: 3.71
NHERF4_1, Q86UT5-2; [1]
  pKd: below the threshold
HTRA3, P83110; [1]
  pKd: 4.15
GRIP2_5, Q9C0E4; [1]
  pKd: below the threshold
PICK1, Q9NRD5; [1]
  pKd: 4.19
LRRC7, Q96NW7; [1]
  pKd: below the threshold
LAP2, Q96RT1; [1]
  pKd: below the threshold
DLG5_1, Q8TDM6; [1]
  pKd: below the threshold
NHERF3_3, Q5T2W1; [1]
  pKd: below the threshold
Inadl_10, Q8NI35; [1]
  pKd: below the threshold
TJP2_1, Q9UDY2; [1]
  pKd: below the threshold
SNTG1, Q9NSN8; [1]
  pKd: below the threshold
DLG4_3, P78352; [1]
  pKd: below the threshold
NHERF3_1, Q5T2W1; [1]
  pKd: below the threshold
NHERF4_2, Q86UT5; [1]
  pKd: below the threshold
MAGI2_4, Q86UL8; [1]
  pKd: 3.47
IL16_3, Q14005; [1]
  pKd: below the threshold
LNX2_2, Q8N448; [1]
  pKd: 4.77
SCRIB_2, Q14160; [1]
  pKd: below the threshold

## SSRTRRETQL [HPV16-E6_-2P, P03126]
LIN7B, Q9HAP6; [2]
  pKd: below the threshold
GRID2IP_2, A4D2P6; [2]
  pKd: below the threshold
GRIP2_7, Q9C0E4; [2]
  pKd: below the threshold
CARD11, Q9BXL7; [2]
  pKd: below the threshold
Inadl_5, Q8NI35; [2]
  pKd: below the threshold
SNX27, Q96L92; [2]
  pKd: below the threshold
LDB3, O75112; [2]
  pKd: below the threshold
PCLO, Q9Y6V0; [2]
  pKd: below the threshold
SCRIB_3, Q14160; [2]
  pKd: below the threshold
NHERF4_1, Q86UT5-2; [2]
  pKd: 4.37
HTRA3, P83110; [2]
  pKd: below the threshold
GRIP2_5, Q9C0E4; [2]
  pKd: below the threshold
PICK1, Q9NRD5; [2]
  pKd: below the threshold
LRRC7, Q96NW7; [2]
  pKd: below the threshold
LAP2, Q96RT1; [2]
  pKd: below the threshold
DLG5_1, Q8TDM6; [2]
  pKd: below the threshold
NHERF3_3, Q5T2W1; [2]
  pKd: below the threshold
Inadl_10, Q8NI35; [2]
  pKd: below the threshold
TJP2_1, Q9UDY2; [2]
  pKd: below the threshold
SNTG1, Q9NSN8; [2]
  pKd: below the threshold
DLG4_3, P78352; [2]
  pKd: below the threshold
NHERF3_1, Q5T2W1; [2]
  pKd: 3.79
NHERF4_2, Q86UT5; [2]
  pKd: below the threshold
MAGI2_4, Q86UL8; [2]
  pKd: below the threshold
IL16_3, Q14005; [2]
  pKd: below the threshold
LNX2_2, Q8N448; [2]
  pKd: below the threshold
SCRIB_2, Q14160; [2]
  pKd: below the threshold

## KSRVAFFEEL [NF2, P35240;P35240-1]
LIN7B, Q9HAP6; [1]
  pKd: below the threshold
GRIP2_7, Q9C0E4; [1]
  pKd: below the threshold
CARD11, Q9BXL7; [1]
  pKd: below the threshold
Inadl_5, Q8NI35; [1]
  pKd: below the threshold
PCLO, Q9Y6V0; [1]
  pKd: below the threshold
NHERF4_1, Q86UT5-2; [1]
  pKd: 4.31
HTRA3, P83110; [1]
  pKd: below the threshold
PICK1, Q9NRD5; [1]
  pKd: below the threshold
LAP2, Q96RT1; [1]
  pKd: below the threshold
DLG5_1, Q8TDM6; [1]
  pKd: below the threshold
NHERF3_3, Q5T2W1; [1]
  pKd: below the threshold
Inadl_10, Q8NI35; [1]
  pKd: below the threshold
SNTG1, Q9NSN8; [1]
  pKd: below the threshold
NHERF3_1, Q5T2W1; [1]
  pKd: 4.18
IL16_3, Q14005; [1]
  pKd: below the threshold
LNX2_2, Q8N448; [1]
  pKd: below the threshold
SCRIB_2, Q14160; [1]
  pKd: below the threshold

## KRPEMTSSSV [MUC3A, MUC3B, Q02505;Q9H195]
LIN7B, Q9HAP6; [1]
  pKd: 3.68
GRID2IP_2, A4D2P6; [1]
  pKd: 3.73
GRIP2_7, Q9C0E4; [1]
  pKd: below the threshold
CARD11, Q9BXL7; [1]
  pKd: 1.75
Inadl_5, Q8NI35; [1]
  pKd: below the threshold
LDB3, O75112; [1]
  pKd: below the threshold
PCLO, Q9Y6V0; [1]
  pKd: below the threshold
SCRIB_3, Q14160; [1]
  pKd: 1.79
NHERF4_1, Q86UT5-2; [1]
  pKd: 3.58
HTRA3, P83110; [1]
  pKd: below the threshold
GRIP2_5, Q9C0E4; [1]
  pKd: below the threshold
LRRC7, Q96NW7; [1]
  pKd: below the threshold
NHERF3_3, Q5T2W1; [1]
  pKd: below the threshold
Inadl_10, Q8NI35; [1]
  pKd: below the threshold
TJP2_1, Q9UDY2; [1]
  pKd: below the threshold
SNTG1, Q9NSN8; [1]
  pKd: 4.08
DLG4_3, P78352; [1]
  pKd: 1.91
NHERF4_2, Q86UT5; [1]
  pKd: below the threshold
MAGI2_4, Q86UL8; [1]
  pKd: 1.79
IL16_3, Q14005; [1]
  pKd: below the threshold
